Laboratory results from publication PMC3715405.

Target: T1, WT tetherin (human tetherin internally tagged with an HA epitope at amino acid 155) (human), Q10589
T1 chain: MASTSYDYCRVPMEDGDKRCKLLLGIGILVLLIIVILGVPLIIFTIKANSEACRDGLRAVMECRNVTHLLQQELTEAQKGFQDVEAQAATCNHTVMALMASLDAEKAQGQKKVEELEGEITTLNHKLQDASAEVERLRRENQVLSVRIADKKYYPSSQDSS
Assay: non-reducing SDS-PAGE and western blot; lysates of 293T cells cotransfected with HIV-1 ΔVpu proviral plasmid and tetherin plasmids, lysed in non-reducing buffer, probed with anti-HA; shows disulphide-linked dimers
Conditions: remark: other sources report otherwise

stoichiometry N: 2
B1: WT tetherin (human tetherin internally tagged with an HA epitope at amino acid 155), Q10589 1-161 (natural protein)
chain: MASTSYDYCRVPMEDGDKRCKLLLGIGILVLLIIVILGVPLIIFTIKANSEACRDGLRAVMECRNVTHLLQQELTEAQKGFQDVEAQAATCNHTVMALMASLDAEKAQGQKKVEELEGEITTLNHKLQDASAEVERLRRENQVLSVRIADKKYYPSSQDSS
modifications: here or on the partner: glycosylphosphatidylinositol (GPI) membrane anchor at the C-terminus; heterogeneously glycosylated; glycosylphosphatidylinositol (GPI) membrane anchor at the C-terminus; heterogeneously glycosylated
